Laboratory results: article PMC3874162 (Nucleic Acids Research, 2013)
Substitutions are numbered along the chain they refer to.

Columns and labels:
Cdc13-F539A = target: T1, Cdc13-F539A (Saccharomyces cerevisiae, UniProt P32797 1-924, F539A); experiment: EMSA
T1 sequence: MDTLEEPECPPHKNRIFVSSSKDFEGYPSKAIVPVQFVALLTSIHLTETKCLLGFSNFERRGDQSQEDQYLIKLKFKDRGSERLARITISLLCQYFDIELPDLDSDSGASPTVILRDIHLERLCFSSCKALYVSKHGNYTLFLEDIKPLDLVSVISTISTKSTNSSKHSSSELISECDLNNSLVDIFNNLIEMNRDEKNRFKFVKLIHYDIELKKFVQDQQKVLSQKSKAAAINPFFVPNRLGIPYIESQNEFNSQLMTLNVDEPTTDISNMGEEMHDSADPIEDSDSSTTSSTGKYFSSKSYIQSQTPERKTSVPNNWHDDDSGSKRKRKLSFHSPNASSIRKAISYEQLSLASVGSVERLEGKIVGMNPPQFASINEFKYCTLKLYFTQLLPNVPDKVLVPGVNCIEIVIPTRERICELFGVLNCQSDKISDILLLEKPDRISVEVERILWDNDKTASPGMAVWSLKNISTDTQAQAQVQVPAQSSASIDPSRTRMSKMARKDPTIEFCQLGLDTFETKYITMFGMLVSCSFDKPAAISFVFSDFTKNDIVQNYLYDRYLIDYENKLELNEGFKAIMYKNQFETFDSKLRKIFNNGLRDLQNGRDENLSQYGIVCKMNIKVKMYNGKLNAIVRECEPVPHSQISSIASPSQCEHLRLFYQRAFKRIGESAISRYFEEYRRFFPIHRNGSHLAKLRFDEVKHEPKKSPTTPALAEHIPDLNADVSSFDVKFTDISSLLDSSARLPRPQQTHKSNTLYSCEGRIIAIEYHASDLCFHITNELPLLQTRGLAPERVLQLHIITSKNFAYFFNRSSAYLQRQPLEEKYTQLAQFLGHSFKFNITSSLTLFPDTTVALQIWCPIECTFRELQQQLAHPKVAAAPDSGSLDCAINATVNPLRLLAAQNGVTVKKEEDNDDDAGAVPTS

Cdc13-Y561A = target: T2, Cdc13-Y561A (Saccharomyces cerevisiae, UniProt P32797 1-924, Y561A); experiment: EMSA
T2 sequence: T1 sequence with A539F, Y561A

GTGTGGGTGTG (ssDNA) [Tel11]
Kd (Cdc13-F539A): 140 ± 20 pM
Kd (Cdc13-Y561A): 17 ± 1 pM
